Test results as given in US20240270846A1 (published 2024).
Residue numbers refer to the chain shown, from its start. Numbers in names are those of the source. Where “and” joins values, the source holds several entries; their conditions need not be identical. Equal values may be shown once.

T1: biotinylated CD3 epsilon epitope peptide (UniProt P07766 22-48, biotinylated)
T1 chain: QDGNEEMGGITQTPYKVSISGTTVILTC

B1: dBBDu_H115/L039 (antibody, human IgG1, V domains shown)
VH: QVQLVESGGGLVQPGRSLRLSCAASGFTFSNAWMHWVRQAPGKGLEWVAQIKDKANSYNTYYAPSVKGRFTISRDDSKNSIYLQMNSLKTEDTAVYYCRYVHYGSSYGFLFAGYGVDAWGQGTTVTVSS
VL: DIVMTQSPLSLPVTPGEPASISCTSSQSLLHANRNTYLHWYQQKPGQAPRLLIYKVSNRFSGVPDRFSGSGSGTDFTLKISRVEAEDVGVYYCAQGTSAPFTFGQGTKLEIK
notes: Full length IgG (human IgG1 CH1-Fc heavy chain, kappa light chain)
B2: dBBDu_H115/L008 (antibody, V domains shown)
VH: B1 VH
VL: B1 VL with T24Q, Q27E, S28E, N35K, S57Q, S98A, A99T
notes: Full length IgG (human IgG1 CH1-Fc heavy chain, kappa light chain); also called Du115/DUL008
B3: dBBDu_H115/L016 (antibody, human IgG1, V domains shown)
VH: B1 VH
VL: B1 VL with L9M, T24Q, Q27E, S61N, S98A, A99N, F101Y
notes: as for B1
B4: dBBDu_H115/L014 (antibody, human IgG1, V domains shown)
VH: B1 VH
VL: B1 VL with A32Q, S61N, S98A, A99N
notes: as for B1
B5: dBBDu_H115/L035 (antibody, human IgG1, V domains shown)
VH: B1 VH
VL: B1 VL with T24A, S25A, Q27E, A32T, S98Q, A99S
notes: as for B1
B6: dBBDu167/L094 (antibody, V domains shown)
VH: QVQLVESGGGLVQPGRSLRLSCAASGFTFSNAWMHWVRQAPGKGLEWVAQIKDKGNLYAAYYAPSVKGRFTISRDDSKNSIYLQMNSLKTEDTAVYYCHYVHYASAGGGLPGFGVDAWGQGTTVTVSS
VL: DIVMTQSPLSLPVTPGEPASISCYASEELLHINRHIYLHWYQQKPGQAPRLLIYKVYNRFNGVPDRFSGSGSGTDFTLKISRVEAEDVGVYYCAQGSSVPFTFGQGTKLEIK
notes: Purified IgG; Fab genes of the panning output converted into IgG format; also called dBBDu_167/dBBDu.L094
B7: dBBDu186/L098 (antibody, V domains shown)
VH: B6 VH with K54R, G55S, L57Q, A60T, S105Q, G107S, G108T, G109V, G112A
VL: B6 VL with Y24A, L30V, H35Y, Y37F, Y57S, N61I, S98Q
notes: Purified IgG; Fab genes of the panning output converted into IgG format
B8: dBBDu186/L108 (antibody, V domains shown)
VH: B6 VH with K54R, G55S, L57Q, A60T, S105Q, G107S, G108T, G109V, G112A
VL: B6 VL with Y24R, A25T, H35F, I36T, Y37F, Y57S, N61M, S98A
notes: as for B7
B9: dBBDu189/L119 (antibody, V domains shown)
VH: B6 VH with V48I, K54R, G55S, L57Q, A60T, S105Q, G107S, G108S, G109L, G112S
VL: B6 VL with Y24T, E27Q, L30V, H35F, Y37F, Y57S, N61I, S98Q
notes: as for B7
B10: dBBDu186/L106 (antibody, V domains shown)
VH: B6 VH with K54R, G55S, L57Q, A60T, S105Q, G107S, G108T, G109V, G112A
VL: B6 VL with Y24S, A25T, H35F, Y37F, Y57A, N61M, S98Q
notes: as for B7
B11: dBBDu186/L100 (antibody, V domains shown)
VH: B6 VH with K54R, G55S, L57Q, A60T, S105Q, G107S, G108T, G109V, G112A
VL: B6 VL with Y24S, L30V, H35Y, Y37F, N61M, A94G
notes: as for B7
B12: CE115HA000 V11L/D72A/L78I/D101Q with GGSGGS inserted between Kabat positions 99 and 100, one-arm antibody (antibody, V domains shown)
VH: QVQLVESGGGLVQPGRSLRLSCAASGFTFSNAWMHWVRQAPGKGLEWVAQIKAKSNNYATYYAESVKGRFTISRADSKNSIYLQMNSLKTEDTAVYYCRYVHYGAGGSGGSYYGVQAWGQGTTVTVSS
VL: DIVMTQSPLSLPVTPGEPASISCRSSQSLVHSNRNTYLHWYQQKPGQAPRLLIYKVSNRFSGVPDRFSGSGSGTDFTLKISRVEAEDVGVYYCGQGTQVPYTFGQGTKLEIKR
B13: CE115HA000 V11L/D72A/L78I/D101Q with GGSGGSGGS inserted between Kabat positions 99 and 100, one-arm antibody (antibody, V domains shown)
VH: QVQLVESGGGLVQPGRSLRLSCAASGFTFSNAWMHWVRQAPGKGLEWVAQIKAKSNNYATYYAESVKGRFTISRADSKNSIYLQMNSLKTEDTAVYYCRYVHYGAGGSGGSGGSYYGVQAWGQGTTVTVSS
VL: B12 VL
B14: CE115HA000 V11L/D72A/L78I/D101Q with GGSGGGS inserted between Kabat positions 99 and 100, one-arm antibody (antibody, V domains shown)
VH: QVQLVESGGGLVQPGRSLRLSCAASGFTFSNAWMHWVRQAPGKGLEWVAQIKAKSNNYATYYAESVKGRFTISRADSKNSIYLQMNSLKTEDTAVYYCRYVHYGAGGSGGGSYYGVQAWGQGTTVTVSS
VL: B12 VL
B15: L chain one-amino acid altered form of GLS3000, V to Y at Kabat position 94 (one-arm antibody: CE115HA000-pE22Hh / Kn010G3 / altered GLS3000-kappa) (antibody, human IgG1, kappa, L234A L235A, N297A, name in Kabat numbering)
heavy: QVQLVESGGGVVQPGRSLRLSCAASGFTFSNAWMHWVRQAPGKGLEWVAQIKAKSNNYATYYAESVKGRFTISRDDSKNSLYLQMNSLKTEDTAVYYCRYVHYGAYYGVDAWGQGTTVTVSSASTKGPSVFPLAPSSKSTSGGTAALGCLVKDYFPEPVTVSWNSGALTSGVHTFPAVLQSSGLYSLSSVVTVPSSSLGTQTYICNVNHKPSNTKVDKKVEPKSCDKTHTCPPCPAPEAAGGPSVFLFPPKPKDTLMISRTPEVTCVVVDVSHEDPEVKFNWYVDGVEVHNAKTKPREEQYASTYRVVSVLTVLHQDWLNGKEYKCKVSNKALPAPIEKTISKAKGQPREPQVYTLPPSRCELTKNQVSLSCAVKGFYPSDIAVEWESNGQPENNYKTTPPVLDSDGSFFLVSKLTVDKSRWQQGNVFSCSVMHEALHNHYTQKSLSLSPDYKDDDDK
chain: EPKSSDKTHTCPPCPAPELLGGPSVFLFPPKPKDTLMISRTPEVTCVVVDVSHEDPEVKFNWYVDGVEVHNAKTKPREEQYNSTYRVVSVLTVLHQDWLNGKEYKCKVSNKALPAPIEKTISKAKGQPREPQVCTLPPSRDELTKNQVSLWCLVKGFYPSDIAVEWESNGQPENNYKTTPPVLDSDGSFFLYSKLTVDKSRWQQGNVFSCSVMHEALHNRYTQKSLSLSP
light: DIVMTQSPLSLPVTPGEPASISCRSSQSLVHSNRNTYLHWYQQKPGQAPRLLIYKVSNRFSGVPDRFSGSGSGTDFTLKISRVEAEDVGVYYCGQGTQYPYTFGQGTKLEIKRTVAAPSVFIFPPSDEQLKSGTASVVCLLNNFYPREAKVQWKVDNALQSGNSQESVTEQDSKDSTYSLSSTLTLSKADYEKHKVYACEVTHQGLSSPVTKSFNRGEC
notes: One-arm antibody (IgG lacking one Fab); also called GLS3000 V94Y

Key:
[1] = target: T2, biotin-labeled human CD137 fused to human IgG1 Fc fragment (human, biotin-labeled); test: bead ELISA (chemiluminescence), IgG on biotin-human CD137-Fc on streptavidin beads; competitor free CD3 epsilon 62.5 pmol
T2 construct: also called human CD137-Fc; biotin-human CD137-Fc

[2] = target: T2, biotin-labeled human CD137 fused to …; test: bead ELISA (chemiluminescence), IgG on biotin-human CD137-Fc on streptavidin beads; control competitor free human Fc 62.5 pmol
[3] = target: T2, biotin-labeled human CD137 fused to …; test: bead ELISA, IgG on biotin-human CD137-Fc; signal with free CD3e 62.5 pmol against free Fc 62.5 pmol
[4] = target: T3, biotin-labeled human CD137 fused to human IgG1 Fc fragment (human, biotin-labeled); test: bead ELISA, IgG on biotin-human CD137-Fc; control competitor: free human IgG1 Fc 62.5 pmol
T3 construct: also called human CD137-Fc; biotin-human CD137-Fc

[5] = target: T3, biotin-labeled human CD137 fused to …; test: bead ELISA, IgG on biotin-human CD137-Fc; competitor: free CD3 epsilon 62.5 pmol
[6] = target: T3, biotin-labeled human CD137 fused to …; test: bead ELISA, IgG on biotin-human CD137-Fc; decrease with free CD3 epsilon 62.5 pmol against free Fc 62.5 pmol
[7] = target: T1, biotinylated CD3 epsilon epitope peptide; test: SPR (Biacore); biotinylated CD3 epsilon epitope peptide on chip via streptavidin, antibody as analyte
[8] = target: T4, CD3 epsilon homodimer protein (UniProt P07766 23-126); test: SPR, Biacore T200, CD3 epsilon homodimer immobilized on CM4, one-arm antibody as analyte, 25 degrees C
T4 construct: also called CD3 (CD3 epsilon)

Binder | ELISA signal with Free CD3e 62.5 pmol [1] | ELISA signal with Free Fc 62.5 pmol [2] | Signal decrease [3] | ELISA signal, Free Fc 62.5 pmol [4] | ELISA signal, Free CD3e 62.5 pmol [5] | Signal decrease [6] | also measured
B1 | 1550 | 55800 | 97.2% |  |  |  | 
B2 | 1450 | 76900 | 98.1% |  |  |  | 
B3 | 1540 | 46800 | 96.7% |  |  |  | 
B4 | 1510 | 72100 | 97.9% |  |  |  | 
B5 | 1470 | 70600 | 97.9% |  |  |  | 
B6 |  |  |  | 141000 | 4370 | 96.9% | 
B7 |  |  |  | 115000 | 15900 | 86.2% | 
B8 |  |  |  | 83600 | 50800 | 39.2% | 
B9 |  |  |  | 88100 | 20400 | 76.9% | 
B10 |  |  |  | 9860 | 3090 | 68.7% | 
B11 |  |  |  | 102000 | 88900 | 13% | 
B12 |  |  |  |  |  |  | Kd [7]: 34.6 nM and 31.1 nM
B13 |  |  |  |  |  |  | Kd [7]: 43.9 nM and 35.4 nM
B14 |  |  |  |  |  |  | Kd [7]: 43.5 nM and 34.3 nM
B15 |  |  |  |  |  |  | ratio of amounts bound (Z = Y/X) against the unaltered GLS3000 antibody [8]: 0.63
